This experiment concerns the target T1, MitTx β subunit (Texas coral snake, UniProt G9I930 31-149).
T1 sequence: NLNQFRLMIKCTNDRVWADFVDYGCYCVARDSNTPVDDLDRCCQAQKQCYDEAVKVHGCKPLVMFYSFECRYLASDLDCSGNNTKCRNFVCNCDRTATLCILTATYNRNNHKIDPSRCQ
Put plainly: crystal structure.

The values below come from paper PMC4190031 (Cell, 2014).

Square brackets hold non-standard residues; d marks the D form. Ends that are not written are not given here.

B1: MitTx α subunit (natural protein)
chain: [PCA]IRPAFCYEDPPFFQKCGAFVDSYYFNRSRITCVHFFYGQCDVNQNHFTTMSECNRVCHG
modifications: cysteine pairing not given here
In the case of B1, the binding result was “binds”.
